# According to patent publication US20050170334A1 (published 2005):
# T1: OVA (UniProt P01012 2-386)
# T1 sequence: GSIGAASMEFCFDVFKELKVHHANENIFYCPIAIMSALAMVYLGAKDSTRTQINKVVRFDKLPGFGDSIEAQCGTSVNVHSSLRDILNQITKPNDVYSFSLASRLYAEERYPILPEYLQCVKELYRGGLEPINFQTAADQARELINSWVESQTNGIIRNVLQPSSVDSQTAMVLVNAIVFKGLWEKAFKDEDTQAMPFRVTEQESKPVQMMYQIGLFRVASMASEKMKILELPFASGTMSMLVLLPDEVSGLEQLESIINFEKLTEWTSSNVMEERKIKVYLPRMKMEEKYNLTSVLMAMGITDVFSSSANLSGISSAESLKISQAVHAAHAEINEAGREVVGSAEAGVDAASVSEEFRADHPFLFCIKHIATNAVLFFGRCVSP
# B1: L66 (antibody, V domains shown)
# VH: EVQLVESGGGVVRPGGSLRLSCAASGFTFDDYGMSWVRQAPGKGLEWVSGINWNGGSTGYADSVKGRFTISRDNAKNSLYLQMNSLRAEDTALYYCARDRVTMVRGVIMDYYGMDVWGQGTTVTVSS
# VL: QTVVTQEPSLTVSPRGTVTLTCSSSTGAVTSGYYPGWFQLKPGQAPMSLIYSARKKHSWTPARFSGSLLGGKAALTLSGVQPEDEAEYYCLLYYGGAYVFGTGTKVTVLG
# B2: human anti-M2 antibody C40 (antibody, V domains shown)
# VH: QLQLQESGPGLVKPSETLSLTCTVSGGSISSSFYYCGWIRQPPGKGLEWIGSIYYRGSTYYNPSLKSRVTISVDTSKNQFSLKLSSVTAADTAVYYCARRVTMVRGVKGDYFDYWGQGTLVTVSS
# VL: DIQMTQSPSSLSASVGDRVTITCRASQGISSWLAWYQQKPEKVPKSLIYAASSLQSGVPSRFSGSGSGTDFTLTISSLQPEDFATYYCQQYNYYPLTFGGGTKVEIKR
# B3: C40G1 (antibody, V domains shown)
# VH: QLQLQESGPGLVKPSETLSLTCTVSGGSISSSFYYCGWIRQPPGKGLEWIGSIYYRGSTYYNPSLKSRVTISVDTSKNQFSLKLSSVTAADTAVYYCARRVTMVRGVKGDYFDYWGQGTLVTVSS
# VL: DIQMTQSPSSLSASVGDRVTITCRASQGISSWLAWYQQKPEKVPKSLIYAASSLQSGVPSRFSGSGSGTDFTLTISSLQPEDFATYYCQQYNYYPLTFGGGTKVEIKR
# B4: N547 (antibody, V domains shown)
# VH: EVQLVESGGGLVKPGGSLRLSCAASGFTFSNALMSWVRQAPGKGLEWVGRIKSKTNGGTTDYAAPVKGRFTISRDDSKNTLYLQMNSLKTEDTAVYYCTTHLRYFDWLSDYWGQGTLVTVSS
# VL: QSVLTQPPSMSAAPGQKVTISCSGSSSNIGNNYISWYQQLPGTAPKVLIYDNNKRPSGIPDRFSGSKSGTSATLGITGLQTGDEADYYCGSWDSSLSAGVFGTGTKVTVLG
# Assays:
# BSA = biological target: T2, BSA (UniProt P02769 25-607); experiment: ELISA
# T2 construct: carrier for immunization
# OVA = biological target: T1, OVA; experiment: ELISA
# T2 sequence (P02769 25-607 limits assumed): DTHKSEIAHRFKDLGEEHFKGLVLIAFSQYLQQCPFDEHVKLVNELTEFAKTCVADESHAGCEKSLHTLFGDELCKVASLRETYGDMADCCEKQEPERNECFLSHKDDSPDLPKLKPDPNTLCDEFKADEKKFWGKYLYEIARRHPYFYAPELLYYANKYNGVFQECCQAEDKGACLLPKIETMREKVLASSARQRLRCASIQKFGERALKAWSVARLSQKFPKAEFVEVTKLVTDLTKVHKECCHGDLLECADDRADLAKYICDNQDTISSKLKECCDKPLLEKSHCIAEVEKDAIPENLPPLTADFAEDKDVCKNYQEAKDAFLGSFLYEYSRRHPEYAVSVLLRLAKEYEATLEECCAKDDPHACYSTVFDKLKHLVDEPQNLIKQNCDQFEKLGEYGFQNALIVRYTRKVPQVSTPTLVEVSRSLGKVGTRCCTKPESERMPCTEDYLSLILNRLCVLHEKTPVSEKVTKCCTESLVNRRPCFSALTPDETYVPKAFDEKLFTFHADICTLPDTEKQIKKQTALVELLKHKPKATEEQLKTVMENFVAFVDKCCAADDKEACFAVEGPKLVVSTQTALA
Binder,binding result (BSA),binding result (OVA)
B1,no binding (tested: OD450 below 0.1),no binding (tested: OD450 below 0.1)
B2,no binding (tested: OD450 below 0.1),no binding (tested: OD450 below 0.1)
B3,no binding (tested: OD450 below 0.1),no binding (tested: OD450 below 0.1)
B4,no binding (tested: OD450 below 0.1),no binding (tested: OD450 below 0.1)
